Tests used:
[1] = molecular target: fluorescein-labelled single cysteine mutant of arrestin-3 (arrestin-3-L101C on cysteine-less background) (bovine) (UniProt P32120); assay: FRET or BRET
[2] = molecular target: fluorescein-labelled single cysteine mutant of arrestin-2 (arrestin-2-S234C on cysteine-less background) (bovine) (UniProt P17870); assay: FRET or BRET
Chain of UniProt P17870 (P17870 whole entry S234C, stated change not applied): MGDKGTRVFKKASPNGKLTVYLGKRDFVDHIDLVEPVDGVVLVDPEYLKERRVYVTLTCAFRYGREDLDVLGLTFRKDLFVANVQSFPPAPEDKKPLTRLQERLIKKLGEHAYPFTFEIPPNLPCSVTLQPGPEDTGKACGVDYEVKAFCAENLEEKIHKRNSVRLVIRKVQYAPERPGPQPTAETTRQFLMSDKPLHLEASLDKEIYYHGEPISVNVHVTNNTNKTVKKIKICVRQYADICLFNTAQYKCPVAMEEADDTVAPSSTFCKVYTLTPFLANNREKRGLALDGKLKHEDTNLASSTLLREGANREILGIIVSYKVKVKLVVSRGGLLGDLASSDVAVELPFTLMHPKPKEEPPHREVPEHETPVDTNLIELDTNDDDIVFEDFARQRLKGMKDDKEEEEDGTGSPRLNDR

Chain of UniProt P32120 (P32120 whole entry L101C, stated change not applied): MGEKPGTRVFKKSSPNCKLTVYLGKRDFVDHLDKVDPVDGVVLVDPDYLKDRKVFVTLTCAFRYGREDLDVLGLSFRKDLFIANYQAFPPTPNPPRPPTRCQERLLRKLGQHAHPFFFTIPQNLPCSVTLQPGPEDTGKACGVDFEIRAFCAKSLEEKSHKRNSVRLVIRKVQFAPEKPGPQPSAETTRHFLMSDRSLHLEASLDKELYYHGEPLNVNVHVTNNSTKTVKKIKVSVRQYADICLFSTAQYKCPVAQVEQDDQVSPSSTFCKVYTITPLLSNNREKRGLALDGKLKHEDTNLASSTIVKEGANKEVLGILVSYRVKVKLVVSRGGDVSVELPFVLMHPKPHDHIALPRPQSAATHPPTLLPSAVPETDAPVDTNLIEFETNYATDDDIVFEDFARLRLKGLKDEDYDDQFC

Kd [1]: 4.4 µM | Kd [2]: 6.1 µM
Substance: Alexa-568-labeled JNK3α2-His (from UniProt P53779 1-464) (enzyme)
